Laboratory results reported in paper PMC2929457 (Nature structural & molecular biology, 2010).

T1: His-SUMOSTAR-FANCD2(1-762) (Drosophila melanogaster) (Drosophila melanogaster, UniProt Q8MYL1 1-762)
T1 sequence (looked up): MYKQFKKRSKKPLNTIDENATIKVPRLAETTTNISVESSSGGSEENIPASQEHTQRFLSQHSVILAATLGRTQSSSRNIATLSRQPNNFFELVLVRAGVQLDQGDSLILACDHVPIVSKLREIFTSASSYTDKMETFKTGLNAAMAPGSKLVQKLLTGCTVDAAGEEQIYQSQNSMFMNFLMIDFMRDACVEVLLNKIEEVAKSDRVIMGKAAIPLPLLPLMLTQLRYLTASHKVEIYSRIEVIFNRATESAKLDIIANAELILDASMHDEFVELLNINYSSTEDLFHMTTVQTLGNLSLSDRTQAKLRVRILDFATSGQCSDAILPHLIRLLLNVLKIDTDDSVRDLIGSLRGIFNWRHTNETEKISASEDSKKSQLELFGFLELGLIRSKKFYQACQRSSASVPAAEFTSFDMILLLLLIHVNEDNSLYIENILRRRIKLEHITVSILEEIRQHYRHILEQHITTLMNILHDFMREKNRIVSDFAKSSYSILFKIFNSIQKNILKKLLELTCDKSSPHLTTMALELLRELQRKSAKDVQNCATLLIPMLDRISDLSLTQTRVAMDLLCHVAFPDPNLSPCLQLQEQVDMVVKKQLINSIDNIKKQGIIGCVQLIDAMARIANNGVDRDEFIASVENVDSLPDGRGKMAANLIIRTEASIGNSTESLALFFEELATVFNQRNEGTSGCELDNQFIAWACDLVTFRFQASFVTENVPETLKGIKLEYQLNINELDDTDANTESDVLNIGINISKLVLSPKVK


Target: T1, His-SUMOSTAR-FANCD2(1-762) (Drosophila …)
Test: pull-down

binding result	Binder
binds	Drosophila melanogaster FANCL, full length (enzyme, UniProt Q8T913 1-381, looked up) MESNEDVERLLCQKYPGLAAELQPSGACIIRGVLGSEDTWRRLKLYLPHHPALHGFQLYVQESLEYKLYTSANLKLQDDWLLEDFLDHLPKILPAQKAPTVPKELCREGNIYYDILALYKSNEYCLQVDEACSMIRFSEFTDFEQHYLELKIPSLLLLDHSLPDCVSLGEMLTKSAGNLEEALNLFRKLLEDLRPFYDNFMDIDELCHVLQPSPISSKHKTRLFPLKDRVYLKLTIADPFACIASMSLKIIGPTEEVARLRHVLSDGLSNWDSEMNIHKNLLRMFDLCYFPMPDWSDGPKLDEEDNEELRCNICFAYRLDGGEVPLVSCDNAKCVLKCHAVCLEEWFKTLMDGKTFLEVSFGQCPFCKAKLSTSFAALLND
binds	FANCL DRWD-RING (residues 105-381) (domain or fragment, Drosophila melanogaster, UniProt Q8T913 105-381, looked up) LCREGNIYYDILALYKSNEYCLQVDEACSMIRFSEFTDFEQHYLELKIPSLLLLDHSLPDCVSLGEMLTKSAGNLEEALNLFRKLLEDLRPFYDNFMDIDELCHVLQPSPISSKHKTRLFPLKDRVYLKLTIADPFACIASMSLKIIGPTEEVARLRHVLSDGLSNWDSEMNIHKNLLRMFDLCYFPMPDWSDGPKLDEEDNEELRCNICFAYRLDGGEVPLVSCDNAKCVLKCHAVCLEEWFKTLMDGKTFLEVSFGQCPFCKAKLSTSFAALLND
